Assay results: patent publication US6566077B1, “Peptide useful as a ligand” (Tecnogen S.C.p.A., priority 1995, dated 2003)
No end group written: not given here.

Tests used:
[1] = tested on: rabbit immunoglobulins; experiment: Affinity chromatography of crude rabbit serum on a column of immobilized peptide, with polyacrylamide gel electrophoresis of the fractions; format: binding
Protocol: The peptide of formula (H-L-Arg-L-Thr-L-Tyr-)4-Lys2-Lys-Gly-OH (5 mg) was dissolved in 5 ml of 0.1 M sodium bicarbonate buffer pH 9.0 and then added to 1.2 g of activated resin CH-Sepharose 4B (Pharmacia, Uppsala, Sweden Cat. No. 17-0490-01), which is a chromatographic support for affinity chromatography preactivated for the direct coupling to peptides and proteins. The suspension was shaken for 24 h and the coupling level was monitored by taking aliquots of the reaction mixture at different times and subsequent RP-HPLC analysis.
Approximately 90% of initial peptide resulted covalently linked to the resin after 24 h. The derivatized resin was washed with 50 ml of 1 M TRIS pH 9.0 and then packed on a glass column (100×6.6 mm I.D.).
(§1) In order to purify immunoglobulins, the column was equilibrated with a 25 mM BIS-TRIS buffer (SIGMA, Cat. B9754) pH 6.5, at a flow rate of 1 ml/min, while the eluent was monitored at 280 nm. One milliliter of crude rabbit serum (SIGMA Cat. No. R 9133) was then loaded on the column, and after elution of non retained material at the column void volume, the eluent was changed to 0.1 M acetic acid.
(§2) Material desorbed by such a treatment was collected and analyzed by electrophoretic analysis on a polyacrylamide gel.
(§3) The purification of rabbit immunoglobulins from crude serum by affinity chromatography is shown in FIG. 1 while the electrophoretic analysis of the collected fractions is shown in FIG. 2. […] Furthermore, in FIG. 2 are also shown the electrophoretic analyses corresponding to several rabbit immunoglobulins purifications obtained after equilibration of the affinity column with different buffers, namely 0.1 M ammonium acetate pH 5.7 (A), 0.1 M sodium phosphate pH 7.0 (B), or 0.1 M sodium phosphate pH 8.5 (C).

[2] = biological target: T1, albumin (Oryctolagus cuniculus, UniProt P49065); experiment: Affinity chromatography of crude rabbit serum on a column of immobilized ligand: retention or carry-over of albumin; format: binding
T1 construct: tissue SIGMA R 9133; host or cells: crude rabbit serum
Protocol: as §1, §2, §3
Indeed similar results were attained with other supports such as Protein-Pak (Waters, USA), Eupergit C30N (Sigma, USA) and Affi-Gel (Bio-Rad, USA).

[3] = biological target: albumin of crude rabbit serum (rabbit, UniProt P49065 25-608); experiment: affinity chromatography of crude rabbit serum on the peptide immobilised on CH-Sepharose 4B; SDS-PAGE of fractions
Chain of albumin of crude rabbit serum (P49065 25-608 limits assumed): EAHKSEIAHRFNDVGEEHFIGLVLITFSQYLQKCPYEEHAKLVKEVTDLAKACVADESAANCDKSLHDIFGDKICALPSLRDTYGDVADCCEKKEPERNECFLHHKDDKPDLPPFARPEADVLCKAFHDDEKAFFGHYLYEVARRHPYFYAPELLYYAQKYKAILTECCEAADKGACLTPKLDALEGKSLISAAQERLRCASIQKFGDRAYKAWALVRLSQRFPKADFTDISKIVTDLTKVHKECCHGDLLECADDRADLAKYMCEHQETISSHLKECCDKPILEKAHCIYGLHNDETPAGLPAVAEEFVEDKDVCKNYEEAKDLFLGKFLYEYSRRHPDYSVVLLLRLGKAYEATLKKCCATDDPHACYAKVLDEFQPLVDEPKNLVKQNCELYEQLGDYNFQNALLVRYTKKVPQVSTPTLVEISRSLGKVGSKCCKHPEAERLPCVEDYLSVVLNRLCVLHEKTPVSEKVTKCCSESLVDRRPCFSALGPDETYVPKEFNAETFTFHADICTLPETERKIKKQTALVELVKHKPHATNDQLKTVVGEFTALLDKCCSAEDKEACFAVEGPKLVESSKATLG

T1 sequence (P49065 25-608): as the sequence (P49065 25-608 limits assumed) above

Molecule: (H-L-Arg-L-Thr-L-Tyr-)4-Lys2-Lys-Gly-OH (peptide H-Arg-Thr-Tyr; chain KKKG-OH; also: branched tetramer: four RTY arms on the alpha and epsilon amines of two Lys, which are attached to the alpha and epsilon amines of a central Lys followed by Gly)
- purification of immunoglobulins from contaminants after equilibration with different buffers ([1]; 0.1 M ammonium acetate pH 5.7, 0.1 M sodium phosphate pH 7.0 or pH 8.5, desorbed with 0.1 M acetic acid): optimal purification of immunoglobulins from contaminants was achieved
- retention of the immunoglobulin fraction from crude serum by the column ([1]; 1 ml crude rabbit serum, 25 mM BIS-TRIS pH 6.5, elution with 0.1 M acetic acid, peptide on CH-Sepharose 4B): able to retain the immunoglobulin fraction from the crude serum
- purification capability of the column ([1]; immunoglobulins purified from 0.5 ml, 1 ml and 1.5 ml of serum): remarkable purification capability
- retention of albumin by the column ([2]; 1 ml crude rabbit serum, 25 mM BIS-TRIS pH 6.5, peptide on CH-Sepharose 4B): albumin was not retained
- column selectivity compared with immobilized protein A columns ([2]; same serum, columns of the same dimensions): superior to that of columns with immobilized protein A

Molecule: protein A: protein obtained from Staphylococcus aureus, binds specifically to the constant portion of immunoglobulins; comparator affinity ligand [reference compound]
- albumin in the purified fractions ([2]; same serum, immobilized protein A column of the same dimensions): always comprising traces of albumin

B1: (H-L-Arg-L-Thr-L-Tyr-)4-Lys2-Lys-Gly-OH (peptide)
peptide: H-Arg-Thr-Tyr
chain: KKKG-OH
modifications: also: branched tetramer: four RTY arms on the alpha and epsilon amines of two Lys, which are attached to the alpha and epsilon amines of a central Lys followed by Gly
notes: Synthetic branched tetramer; also called (H2N-Arg-Thr-Tyr-CO)4-Lys2Lys-Gly-OH; tetrameric tripeptide (H-L-Arg-L-Thr-L-Tyr-)4-Lys2-Lys-COOH
- binding result [3]: no binding
